# Measurements taken from patent US20250382362A1 (UNIVERSIT TSKLINIKUM REGENSBURG, published 2025).
# T1: human IL3 (human, UniProt P08700 20-152)
# T1 sequence: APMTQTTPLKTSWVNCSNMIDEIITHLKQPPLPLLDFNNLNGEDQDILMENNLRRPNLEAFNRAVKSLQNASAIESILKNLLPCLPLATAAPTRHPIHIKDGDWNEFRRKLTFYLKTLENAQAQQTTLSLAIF
# T2: IL3 peptide, amino acids 28-48 (mature) / 47-67 (native) (human)
# T2 construct: Peptide in which amino acids 22-27 are deleted
# T2 peptide: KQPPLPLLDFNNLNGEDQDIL
# T3: IL3 peptide, amino acids 26-48 (mature) / 45-67 (native) (human)
# T3 construct: Peptide in which amino acids 22-25 are deleted
# T3 peptide: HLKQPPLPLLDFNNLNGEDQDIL
# T4: IL3 peptide, amino acids 22-48 (mature) / 41-67 (native) (human)
# T4 construct: Linear peptide derived from human IL3, coated on the plate
# T4 peptide: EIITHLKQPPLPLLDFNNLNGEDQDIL
# B1: GRT002-H16L2 (antibody, human IgG1, kappa, V domains shown)
# VH: QVQLVQSGAEVKKPGASVKVSCKGSGFTFTDYALHWVRQAPGQRLEWMGLISTYYGDTTYNQRFKGRVTMTVDKSTSTAYMELSSLRSEDTAVYYCVITTVAGTDAMDYWGQGTLVTVSS
# VL: DIQMTQSPSSLSASVGDRVTITCHASQNINVWLSWYQQKPGKAPKLLIYKASNLHTGVPSRFSGSGSGTDFTFTISSLQPEDIATYYCQQGYSYPYTFGGGTKLEIKR
# notes: IgG1 of the G1m3 (heavy chain) and KM3 (light chain) allotype, lacks the C-terminal lysine; also called HC16 × LC2; humanized derivative of antibody P8C11
# What was measured:
# human IL3 = target: T1, human IL3; experiment: cell-based or functional assay
# [1] = target: T2, IL3 peptide, amino acids 28-48 (mature) …; experiment: ELISA on coated linear IL3 peptide
# Protocol: (§1) Peptides were coated overnight in PBS in Nunclon 96 Flat Bottom Transparent Polystyrol plates (Thermo Fisher) at a concentration of 10 μg/ml (60 μl/well). Then […] were washed three times with wash buffer (0.05% Tween 20 in PBS), followed by blocking for 2 hours at room temperature with 1% BSA/PBS. After another washing step with wash buffer, antibody GRT002-H16L2 was added (60 μl of a 10 μg/ml solution in 1% BSA/PBS) and incubated for 1 hour at room temperature. 1% BSA/PBS served as a control. After another washing step, GRT002-H16L2 was incubated with a secondary antibody (HRP-conjugated AffinePure fragment goat anti-human IgG; Jackson Immuno Research) for 1 hour at room temperature. After a final washing step, 100 μl of ABTS (2,2′-azino-bis(3-ethylbenzothiazoline-6-sulfonic acid) was added to each well. Absorption was measured in a infinite 200Pro reader (Tecan) at 405 nm.
# [2] = target: T3, IL3 peptide, amino acids 26-48 (mature) …; experiment: ELISA on coated linear IL3 peptide
# Protocol: as §1
# [3] = target: T4, IL3 peptide, amino acids 22-48 (mature) …; experiment: ELISA on coated linear IL3 peptide
# Protocol: as §1
binder,measurement,setting,value
B1,Inhibitory activity (block of IL-3 induced downregulation of CD131 on primary human basophils; chimeric P8C11 normalized to 100%),human IL3,100%
same,binding result,[1],binds
same,binding result,[2],binds
same,binding result,[3],binds
